Source: patent publication US6670114 (N V INNOGENETICS, dated 2003)

Biological target: T1, LDL (purified human low-density lipoprotein, Cappel) (human, UniProt P04114 28-4563)
T1 construct: This is a lipoprotein particle, not a single protein; also called solid phase LDL
Experiment: ELISA: biotinylated envelope protein on coated LDL, streptavidin-peroxidase

B1: E2s (recombinant truncated HCV envelope protein E2, aa 384-673, genotype 1b) (other)
chain: HTRVSGGAAASNTRGLVSLFSPGSAQKIQLVNTNGSWHINRTALNCNDSLQTGFFAALFYKHKFNSSGCPERLASCRSIDKFAQGWGPLTYTEPNSSDQRPYCWHYAPRPCGIVPASQVCGPVYCFTPSPVVVGTTDRFGVPTYNWGANDSDVLILNNTRPPRGNWFGCTWMNGTGFTKTCGGPPCNIGGAGNNTLTCPTDCFRKHPEATYARCGSGPWLTPRCMVHYPYRLWHYPCTVNFTIFKVRMYVGGVEHRFGAACNWTRGERCDLEDRDRSELSPLLLSTTEWQ
modifications: biotinylated (sites not given)
notes: also called biotinylated E2
- binding result: no binding
